This is an account of results in PMC12961186, “JUNO-coated beads as a functional assay to capture and characterize fertilization-competent human sperm” (Human Reproduction Open, 2026).

What is called Kd is the constant that tells how readily two partners part at equilibrium. The koff is a measure of how fast the partners let go of each other. What is called kon is a measure of how fast the partners come together.

In the test the target is T1, Recombinant human IZUMO1 ectodomain (residues 22-254) (human, UniProt Q8IYV9 22-254).
T1 construct: IZUMO1, human, UniProt Q8IYV9, residues 22-254 (ectodomain); The construct has an N-terminal BiP signal peptide for secretion and a thrombin cleavage site before the C-terminal 10xHis tag; In the bead assay the tag was probably cleaved, since the beads capture His tags (surmise); also called rIZUMO1; IZUMO1 (residues 22-254); source: Drosophila S2 cells, stably transfected, secreted; purified …
T1 sequence (Q8IYV9 22-254): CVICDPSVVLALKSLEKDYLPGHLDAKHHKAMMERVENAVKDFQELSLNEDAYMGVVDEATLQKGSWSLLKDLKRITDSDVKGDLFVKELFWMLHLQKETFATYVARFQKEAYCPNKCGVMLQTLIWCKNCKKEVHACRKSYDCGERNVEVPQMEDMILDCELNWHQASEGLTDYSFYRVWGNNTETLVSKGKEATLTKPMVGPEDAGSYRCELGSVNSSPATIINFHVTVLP
In words: SPR; Nicoya Alto digital SPR, single-cycle kinetics, 25 °C; biotinylated JUNO (800 nM) immobilised as bait on streptavidin-coated carboxyl PEG cartridge; IZUMO1 as analyte at 1000, 333, 111, 37 and 12.3 nM; PBS pH 7.4, 0.05% Tween-20; technical triplicate. Particulars: both partners purified.

B1: Human JUNO ectodomain (residues 20-228), biotinylated (domain or fragment, UniProt A6ND01 20-228, looked up)
chain: GDELLNICMNAKHHKRVPSPEDKLYEECIPWKDNACCTLTTSWEAHLDVSPLYNFSLFHCGLLMPGCRKHFIQAICFYECSPNLGPWIQPVGSLGWEVAPSGQGERVVNVPLCQEDCEEWWEDCRMSYTCKSNWRGGWDWSQGKNRCPKGAQCLPFSHYFPTPADLCEKTWSNSFKASPERRNSGRCLQKWFEPAQGNPNVAVARLFAS
modifications: biotin (EZ-link Sulfo-NHS-LC-Biotin, 1:1 molar ratio); glycosylated
notes: JUNO, human, UniProt A6ND01, residues 20-228 (ectodomain); The construct has an N-terminal BiP signal peptide for secretion and a thrombin cleavage site before the C-terminal 10xHis tag; also called recombinant JUNO; rhJUNO; source: Drosophila S2 cells, stably transfected, secreted; purified (Ni-NTA, SEC)
For B1, the dissociation constant (Kd) was determined as 37.6 nM, the koff is 0.00387 s⁻¹ and the on-rate (kon) stood at 103000 M⁻¹ s⁻¹.
